The data set concerns Escherichia coli TOP10. The data set is described as follows: shrunken log2 fold change of peptide-encoding DNA abundance (4.5 h post-induction vs induction); higher = less antimicrobial activity (less host growth inhibition). The conditions noted are these: time post-induction: 4.5 h; library: site-saturation at positions 5, 18, 19, 20.
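Further: peptides expressed intracellularly from a pBAD plasmid library in pooled LB shake-flask culture, induced with 0.3% L-arabinose, DNA abundance read by NGS, three biological replicates, DESeq2 with apeglm shrinkage.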

In the case of RRIRFRPPRLPRPRPRPTDRPRP, the “shrunken log2 fold change” value was 0.243. For the sequence RRIRWRPPRLPRPRPRPCCHPRP, the “shrunken log2 fold change” value is -0.169. On to RRIRDRPPRLPRPRPRPYVAPRP, for which the “shrunken log2 fold change” value is -0.0638.

For the sequence RRIRVRPPRLPRPRPRPKMEPRP, the “shrunken log2 fold change” value was -0.0457. On to RRIRHRPPRLPRPRPRPIIGPRP, for which the “shrunken log2 fold change” value is -0.00804. To RRIRTRPPRLPRPRPRPWTRPRP belongs 0.064. The same measure for RRIRKRPPRLPRPRPRPKTGPRP: 0.821.

Turning to RRIRERPPRLPRPRPRPVTGPRP, the “shrunken log2 fold change” value was -0.0257. For the sequence RRIRMRPPRLPRPRPRPQLYPRP, the “shrunken log2 fold change” value was 0.284. Turning to RRIRGRPPRLPRPRPRPAIKPRP, the “shrunken log2 fold change” value came to 0.534. RRIRTRPPRLPRPRPRPAWLPRP: the “shrunken log2 fold change” value is -0.0636. On to RRIRERPPRLPRPRPRPPITPRP, for which the “shrunken log2 fold change” value is -0.351.

As for RRIRLRPPRLPRPRPRPINWPRP, the “shrunken log2 fold change” value is -0.434. For RRIRRRPPRLPRPRPRPVREPRP, the “shrunken log2 fold change” value was 0.0195. As to RRIRTRPPRLPRPRPRPTHCPRP, the “shrunken log2 fold change” value worked out at 0.0158. As for RRIRIRPPRLPRPRPRPQVKPRP, the “shrunken log2 fold change” value was -0.405.

For the sequence RRIRLRPPRLPRPRPRPSHFPRP, the “shrunken log2 fold change” value is -0.0938. On to RRIRNRPPRLPRPRPRPDQGPRP, for which the “shrunken log2 fold change” value was -0.257. The same measure for RRIRSRPPRLPRPRPRPNIKPRP: -0.491. With RRIRQRPPRLPRPRPRPTFYPRP, the “shrunken log2 fold change” value is -0.116. Turning to RRIRIRPPRLPRPRPRPEVLPRP, the “shrunken log2 fold change” value was -0.0175. In the case of RRIRERPPRLPRPRPRPGVKPRP, the “shrunken log2 fold change” value was -0.0766. In the case of RRIRWRPPRLPRPRPRPLWYPRP, the “shrunken log2 fold change” value is -0.225. In the case of RRIRWRPPRLPRPRPRPGHVPRP, the “shrunken log2 fold change” value was 0.153.

As to RRIRARPPRLPRPRPRPWIWPRP, the “shrunken log2 fold change” value stood at 0.111. As for RRIRNRPPRLPRPRPRPSRAPRP, the “shrunken log2 fold change” value is 0.121. For RRIRGRPPRLPRPRPRPSFDPRP, the “shrunken log2 fold change” value was found to be 0.44. Consider RRIRYRPPRLPRPRPRPKSEPRP, for which the “shrunken log2 fold change” value is -0.0489. In the case of RRIRWRPPRLPRPRPRPIITPRP, the “shrunken log2 fold change” value is -0.827. With RRIRSRPPRLPRPRPRPIKHPRP, the “shrunken log2 fold change” value is -0.0703. Take RRIRIRPPRLPRPRPRPPIVPRP: the “shrunken log2 fold change” value was -0.68. Take RRIRARPPRLPRPRPRPVSYPRP: the “shrunken log2 fold change” value is -0.133. Turning to RRIRCRPPRLPRPRPRPIGGPRP, the “shrunken log2 fold change” value is -0.17. Regarding RRIRGRPPRLPRPRPRPNCSPRP, the “shrunken log2 fold change” value was 0.99. For the sequence RRIRCRPPRLPRPRPRPVAIPRP, the “shrunken log2 fold change” value was -0.156. To RRIRERPPRLPRPRPRPAISPRP belongs -0.691; to RRIRCRPPRLPRPRPRPKVCPRP, 0.0885. For the sequence RRIRARPPRLPRPRPRPRWDPRP, the “shrunken log2 fold change” value was 0.768. Turning to RRIRKRPPRLPRPRPRPGVRPRP, the “shrunken log2 fold change” value came to 1.16. In the case of RRIRFRPPRLPRPRPRPLCSPRP, the “shrunken log2 fold change” value was -0.566.

Take RRIRFRPPRLPRPRPRPGDYPRP: the “shrunken log2 fold change” value is -0.406.

Turning to RRIRSRPPRLPRPRPRPICHPRP, the “shrunken log2 fold change” value was -0.179. To RRIRNRPPRLPRPRPRPEHRPRP belongs -0.226; to RRIRTRPPRLPRPRPRPNMLPRP, -0.45; to RRIRVRPPRLPRPRPRPWEWPRP, 0.0039. For RRIRWRPPRLPRPRPRPRWWPRP, the “shrunken log2 fold change” value came out at 0.0648. The same measure for RRIRMRPPRLPRPRPRPTHIPRP: -0.363. As for RRIRYRPPRLPRPRPRPVTEPRP, the “shrunken log2 fold change” value was -0.134. Turning to RRIRHRPPRLPRPRPRPMCRPRP, the “shrunken log2 fold change” value is -0.0487. Consider RRIRWRPPRLPRPRPRPGCFPRP, for which the “shrunken log2 fold change” value is 0.375. As for RRIRCRPPRLPRPRPRPWYMPRP, the “shrunken log2 fold change” value was -0.838. Take RRIRYRPPRLPRPRPRPHCEPRP: the “shrunken log2 fold change” value is -0.00822.

Regarding RRIRCRPPRLPRPRPRPGHPPRP, the “shrunken log2 fold change” value is 0.00689. As for RRIRTRPPRLPRPRPRPWNSPRP, the “shrunken log2 fold change” value was -0.0351. For the sequence RRIRPRPPRLPRPRPRPHKDPRP, the “shrunken log2 fold change” value was -0.339.

Turning to RRIRYRPPRLPRPRPRPNQHPRP, the “shrunken log2 fold change” value is -1.18. RRIRLRPPRLPRPRPRPLWQPRP: the “shrunken log2 fold change” value is -0.0523. On to RRIRARPPRLPRPRPRPWMQPRP, for which the “shrunken log2 fold change” value was -0.152.

Take RRIRDRPPRLPRPRPRPGQAPRP: the “shrunken log2 fold change” value is 0.0989. For the sequence RRIRVRPPRLPRPRPRPPYKPRP, the “shrunken log2 fold change” value is -0.371. As to RRIRVRPPRLPRPRPRPPHKPRP, the “shrunken log2 fold change” value was found to be 0.274. On to RRIRYRPPRLPRPRPRPPHAPRP, for which the “shrunken log2 fold change” value was -0.0606.

In the case of RRIRRRPPRLPRPRPRPSFSPRP, the “shrunken log2 fold change” value is -0.411.

In the case of RRIRFRPPRLPRPRPRPATYPRP, the “shrunken log2 fold change” value was -0.191. As for RRIRARPPRLPRPRPRPRQHPRP, the “shrunken log2 fold change” value was found to be 0.278.

Regarding RRIRCRPPRLPRPRPRPRGVPRP, the “shrunken log2 fold change” value turned out to be 0.69. As to RRIRDRPPRLPRPRPRPHWGPRP, the “shrunken log2 fold change” value worked out at 0.00196. Turning to RRIRSRPPRLPRPRPRPTCEPRP, the “shrunken log2 fold change” value was 0.228. For RRIRKRPPRLPRPRPRPFWEPRP, the “shrunken log2 fold change” value is 0.341.

Take RRIRKRPPRLPRPRPRPIPYPRP: the “shrunken log2 fold change” value is -0.303. For RRIRERPPRLPRPRPRPHASPRP, the “shrunken log2 fold change” value is -0.346.

On to RRIRWRPPRLPRPRPRPGSIPRP, for which the “shrunken log2 fold change” value is -0.0682. The same measure for RRIRCRPPRLPRPRPRPNWIPRP: -0.419; for RRIRYRPPRLPRPRPRPRLEPRP: -0.0441. Regarding RRIRGRPPRLPRPRPRPPVHPRP, the “shrunken log2 fold change” value worked out at 0.644. As for RRIRRRPPRLPRPRPRPRRHPRP, the “shrunken log2 fold change” value was found to be 0.218. To RRIRPRPPRLPRPRPRPDGSPRP belongs -0.00717; to RRIRRRPPRLPRPRPRPMQPPRP, 0.0874. Consider RRIRSRPPRLPRPRPRPLVVPRP, for which the “shrunken log2 fold change” value was 0.268. With RRIRQRPPRLPRPRPRPTHCPRP, the “shrunken log2 fold change” value was found to be 0.897. As to RRIRWRPPRLPRPRPRPWPAPRP, the “shrunken log2 fold change” value stood at 0.62.

As to RRIRERPPRLPRPRPRPCWAPRP, the “shrunken log2 fold change” value was found to be 0.00771.

As to RRIRRRPPRLPRPRPRPLTFPRP, the “shrunken log2 fold change” value was 2.56. Take RRIRSRPPRLPRPRPRPAGEPRP: the “shrunken log2 fold change” value is 0.0686. To RRIRVRPPRLPRPRPRPLNKPRP belongs -0.323; to RRIRRRPPRLPRPRPRPWSEPRP, -0.142. For RRIRNRPPRLPRPRPRPNEYPRP, the “shrunken log2 fold change” value is -0.312. With RRIRPRPPRLPRPRPRPFLWPRP, the “shrunken log2 fold change” value is 0.0275. Consider RRIRKRPPRLPRPRPRPSNAPRP, for which the “shrunken log2 fold change” value is -0.154. To RRIRTRPPRLPRPRPRPQSKPRP belongs -0.209; to RRIRYRPPRLPRPRPRPLKDPRP, -0.00674. As to RRIRTRPPRLPRPRPRPEKYPRP, the “shrunken log2 fold change” value was -0.156. Regarding RRIRIRPPRLPRPRPRPRGSPRP, the “shrunken log2 fold change” value was -0.189. In the case of RRIRKRPPRLPRPRPRPPVYPRP, the “shrunken log2 fold change” value worked out at 0.387. Consider RRIRARPPRLPRPRPRPWWPPRP, for which the “shrunken log2 fold change” value came out at 0.292.

Take RRIRCRPPRLPRPRPRPEDSPRP: the “shrunken log2 fold change” value turned out to be 0.00322. With RRIRPRPPRLPRPRPRPSQWPRP, the “shrunken log2 fold change” value was -0.0044. Consider RRIRIRPPRLPRPRPRPYRQPRP, for which the “shrunken log2 fold change” value is -0.326.

For the sequence RRIRLRPPRLPRPRPRPPNRPRP, the “shrunken log2 fold change” value worked out at 0.0237. RRIRPRPPRLPRPRPRPEKQPRP: the “shrunken log2 fold change” value is -0.0353. For the sequence RRIRHRPPRLPRPRPRPDWSPRP, the “shrunken log2 fold change” value is 0.00911. As to RRIRCRPPRLPRPRPRPKVGPRP, the “shrunken log2 fold change” value was -0.0582. For RRIRVRPPRLPRPRPRPEDPPRP, the “shrunken log2 fold change” value turned out to be 0.476. For the sequence RRIRPRPPRLPRPRPRPRYPPRP, the “shrunken log2 fold change” value turned out to be 0.202.

With RRIRFRPPRLPRPRPRPGNTPRP, the “shrunken log2 fold change” value was -0.12.

For RRIRNRPPRLPRPRPRPEFNPRP, the “shrunken log2 fold change” value is -0.0322.

Take RRIRHRPPRLPRPRPRPDWIPRP: the “shrunken log2 fold change” value was -0.111. Consider RRIRSRPPRLPRPRPRPAFPPRP, for which the “shrunken log2 fold change” value came out at 0.278. Regarding RRIRDRPPRLPRPRPRPSATPRP, the “shrunken log2 fold change” value was 0.515.

As to RRIRNRPPRLPRPRPRPDDIPRP, the “shrunken log2 fold change” value is 0.0399.

For RRIRGRPPRLPRPRPRPTGFPRP, the “shrunken log2 fold change” value is 1.23.

RRIRMRPPRLPRPRPRPIGNPRP: the “shrunken log2 fold change” value is 0.13. With RRIRGRPPRLPRPRPRPCNVPRP, the “shrunken log2 fold change” value was -0.037.

On to RRIRFRPPRLPRPRPRPKATPRP, for which the “shrunken log2 fold change” value was -0.061.

RRIRHRPPRLPRPRPRPFQDPRP: the “shrunken log2 fold change” value turned out to be 0.0239. For RRIRQRPPRLPRPRPRPGWGPRP, the “shrunken log2 fold change” value worked out at 0.957.

Regarding RRIRHRPPRLPRPRPRPKCPPRP, the “shrunken log2 fold change” value was -0.0954. To RRIRNRPPRLPRPRPRPGHHPRP belongs -0.00875; to RRIRLRPPRLPRPRPRPFQCPRP, 0.000653. Consider RRIRWRPPRLPRPRPRPKMQPRP, for which the “shrunken log2 fold change” value turned out to be 0.329. With RRIRHRPPRLPRPRPRPRYRPRP, the “shrunken log2 fold change” value was -0.109.

With RRIRMRPPRLPRPRPRPYVVPRP, the “shrunken log2 fold change” value was 0.00957. With RRIRPRPPRLPRPRPRPNHLPRP, the “shrunken log2 fold change” value was -0.601. As for RRIRGRPPRLPRPRPRPTDIPRP, the “shrunken log2 fold change” value is 0.114. To RRIRWRPPRLPRPRPRPDGSPRP belongs -0.0311.
